{"source": "patent US20250271431A1", "binders": {"B1": {"name": "hcAb B10 (clone B10), camelid full length IgG2 heavy chain only antibody (antibody)", "heavy": "DVQLQESGGGLVQPGGSLRLSCAASGDINTIGTMNWFRQAPGKGREFVALITSGGTTNYADSVKGRFTVSRDNAKNTVYLQMNSLKPEDTAVYHCYGADHYSDYWGQGTQVTVSSEPKTPKPQPQPQPQPNPTTESKCPKCPAPELLGGPSVFIFPPKPKDVLSISGRPEVTCVVVDVGQEDPEVSFNWYIDGAEVRTANTRPKEEQFNSTYRVVSVLPIQHQDWLTGKEFKCKVNNKALPAPIEKTISKAKGQTREPQVYALAPHREELAKDTVSVTCLVKGFYPPDINVEWQRNRQPEPEGTYATTPPQLDNDGTYFLYSKLSVGKNTWQRGETFTCVVMHETLHNHYTQKSISQS"}}, "assay_in_all_cases": "RepliTope peptide microarray, Cy5 fluorescence", "key": {"[1]": {"target": "epitope sequence SEQ ID No 17 (…) (SARS-CoV-2)"}, "[2]": {"target": "epitope sequence SEQ ID No 15 (…) (SARS-CoV-2)"}, "[3]": {"target": "epitope sequence SEQ ID No 18 (…) (SARS-CoV-2)"}, "[4]": {"target": "epitope sequence SEQ ID No 35 (…) (SARS-CoV-2)"}, "[5]": {"target": "epitope sequence SEQ ID No 37 (…) (SARS-CoV-2)"}, "[6]": {"target": "epitope sequence SEQ ID No 19 (…) (SARS-CoV-2)"}}, "data": [{"binder": "B1", "values": [{"measurement": "average signal intensity (mean pixel value)", "setting": "[1]", "value": 45000}, {"measurement": "average signal intensity (mean pixel value)", "setting": "[2]", "value": 23000}, {"measurement": "average signal intensity (mean pixel value)", "setting": "[3]", "value": 32800}, {"measurement": "average signal intensity (mean pixel value)", "setting": "[4]", "value": 10500}, {"measurement": "average signal intensity (mean pixel value)", "setting": "[5]", "value": 13900}, {"measurement": "average signal intensity (mean pixel value)", "setting": "[6]", "value": 2400}]}]}
